Assay results published in the Human Domainome abundance scans (Beltran et al. 2025).
± gives the uncertainty stated by the source.

B1: Homeobox protein cut-like 1, residues 941 to 1008; numbered along this chain, P39880 (parent)
chain: QEVDTIELTRQVKEKLAKNGICQRIFGEKVLGLSQGSVSDMLSRPKPWSKLTQKGREPFIRMQLWLNG

Variants of: B1
Assay: abundance fitness (aPCA) (normalised: wild type 0, dead -1); higher = more abundant; growth selection in yeast, the domain comes from the species named
Settings: Homo sapiens

Abundance fitness of substitutions, site by site:
K50: V -0.066 ± 0.053; S -0.04 ± 0.055; W -0.247 ± 0.068; F -0.141 ± 0.091; G -0.194 ± 0.06; L -0.104 ± 0.049; N -0.221 ± 0.088; H -0.184 ± 0.093; T -0.059 ± 0.074; C -0.07 ± 0.069; M -0.012 ± 0.07; D 0.041 ± 0.12; E 0.022 ± 0.064; A -0.098 ± 0.058; Y -0.138 ± 0.092; Q 0.028 ± 0.071
S49: M -0.346 ± 0.069; Q -0.169 ± 0.093; G -0.133 ± 0.069; T -0.131 ± 0.06; Y -0.255 ± 0.077; P -0.231 ± 0.066; I -0.43 ± 0.086; R -0.011 ± 0.052; V -0.177 ± 0.058; E -0.151 ± 0.083; F -0.19 ± 0.073; H 0.025 ± 0.12; W -0.198 ± 0.071; C -0.237 ± 0.067; K 0.029 ± 0.074; A -0.072 ± 0.074; D -0.241 ± 0.096
Q63: G -0.098 ± 0.056; V -0.262 ± 0.056; M -0.124 ± 0.069; S -0.219 ± 0.055; D -0.389 ± 0.091; Y -0.069 ± 0.087; E -0.272 ± 0.061; H 0.041 ± 0.1; W -0.032 ± 0.077; A -0.268 ± 0.051; L -0.424 ± 0.052; T -0.184 ± 0.065; K 0.017 ± 0.072; R 0.012 ± 0.054; C -0.441 ± 0.1; N -0.317 ± 0.11; P -0.724 ± 0.091; I -0.2 ± 0.099; F -0.258 ± 0.099
P45: L -0.202 ± 0.048; Q -0.461 ± 0.078; R -0.184 ± 0.051; E -0.526 ± 0.13; K -0.161 ± 0.089; T -0.224 ± 0.067; G -0.309 ± 0.07; F -0.161 ± 0.073; W -0.108 ± 0.072; V -0.139 ± 0.063; S -0.063 ± 0.057; C -0.123 ± 0.06; D -0.456 ± 0.11; A -0.233 ± 0.084; H -0.124 ± 0.079; Y -0.282 ± 0.077; N -0.227 ± 0.097; M -0.269 ± 0.076; I -0.147 ± 0.088
P47: G -0.123 ± 0.074; K -0.029 ± 0.071; W 0.056 ± 0.055; H -0.133 ± 0.11; Y -0.25 ± 0.11; S -0.086 ± 0.066; E -0.067 ± 0.073; F -0.012 ± 0.12; L -0.029 ± 0.05; I -0.286 ± 0.24; D -0.158 ± 0.13; M -0.12 ± 0.08; A -0.084 ± 0.081; V -0.079 ± 0.068; R -0.134 ± 0.052; Q -0.068 ± 0.074; C -0.086 ± 0.091; N -0.371 ± 0.11
Q53: V -0.095 ± 0.05; P 0.031 ± 0.073; H -0.179 ± 0.11; S -0.022 ± 0.059; N -0.045 ± 0.15; M -0.095 ± 0.076; R -0.053 ± 0.051; D 0.032 ± 0.081; Y -0.27 ± 0.1; L -0.082 ± 0.062; C 0.012 ± 0.11; W -0.173 ± 0.084; E -0.139 ± 0.061; F -0.217 ± 0.086; I -0.119 ± 0.1; T -0.014 ± 0.075; G -0.132 ± 0.054; K 0.076 ± 0.092
I60: F -0.205 ± 0.12; D -0.29 ± 0.11; N -0.051 ± 0.094; Y 0.004 ± 0.093; V 0.025 ± 0.059; E -0.152 ± 0.086; K 0.013 ± 0.081; S -0.141 ± 0.062; W -0.334 ± 0.075; Q -0.142 ± 0.084; T -0.008 ± 0.079; P -0.911 ± 0.17; L -0.015 ± 0.052; M -0.054 ± 0.063; R 0.071 ± 0.058; G -0.383 ± 0.067; C -0.139 ± 0.12; A -0.073 ± 0.073
K46: W -0.285 ± 0.084; I -0.184 ± 0.11; V -0.112 ± 0.054; M -0.15 ± 0.059; Q -0.041 ± 0.06; F -0.227 ± 0.13; A -0.075 ± 0.065; S 0.009 ± 0.058; L -0.07 ± 0.05; P 0.112 ± 0.071; G -0.315 ± 0.051; R -0.099 ± 0.048; C -0.369 ± 0.13; E -0.013 ± 0.055; N -0.461 ± 0.089; Y -0.059 ± 0.17; T -0.205 ± 0.074
P58: K -0.04 ± 0.073; I 0.117 ± 0.083; F 0.006 ± 0.079; S -0.093 ± 0.063; Y -0.1 ± 0.083; W -0.007 ± 0.083; C 0.099 ± 0.14; G -0.201 ± 0.081; Q -0.036 ± 0.074; D -0.13 ± 0.12; R -0.049 ± 0.054; A -0.102 ± 0.072; T 0.052 ± 0.076; L 0.109 ± 0.044; V -0.014 ± 0.06; N 0.025 ± 0.089; H -0.135 ± 0.096
G55: P -0.517 ± 0.082; R -0.38 ± 0.062; C -0.17 ± 0.091; W -0.189 ± 0.069; E 0.17 ± 0.072; Y -0.104 ± 0.1; I 0.093 ± 0.14; V -0.01 ± 0.05; H -0.132 ± 0.12; L -0.045 ± 0.044; F 0.042 ± 0.096; N -0.792 ± 0.21; Q 0.033 ± 0.067; T -0.162 ± 0.063; K -0.163 ± 0.078; A 0.016 ± 0.054; M -0.018 ± 0.092; D 0.084 ± 0.074
R61: W -0.619 ± 0.096; Y -0.365 ± 0.11; F -0.991 ± 0.18; A -0.183 ± 0.061; H -0.393 ± 0.094; T -0.131 ± 0.068; P -0.788 ± 0.096; L -0.174 ± 0.045; E -0.479 ± 0.086; N -0.041 ± 0.11; G -0.582 ± 0.089; C -0.277 ± 0.1; S -0.386 ± 0.065; M -0.308 ± 0.063; Q -0.131 ± 0.085; V -0.487 ± 0.066; I -0.706 ± 0.11
K54: N -0.319 ± 0.11; W -0.327 ± 0.077; F -0.199 ± 0.1; C -0.317 ± 0.074; P -0.439 ± 0.077; H -0.111 ± 0.12; V -0.346 ± 0.071; D -0.098 ± 0.11; M -0.263 ± 0.095; A 0.011 ± 0.061; R -0.074 ± 0.048; Q -0.107 ± 0.076; G -0.223 ± 0.064; E 0.159 ± 0.093; Y -0.431 ± 0.11; I -0.192 ± 0.13; L -0.174 ± 0.053; T -0.101 ± 0.068
L51: P -1.07 ± 0.14; A -0.723 ± 0.078; E -0.929 ± 0.093; C -0.439 ± 0.09; R -0.93 ± 0.063; I -0.113 ± 0.15; T -0.745 ± 0.12; M -0.125 ± 0.095; G -1.04 ± 0.068; Q -0.969 ± 0.12; S -0.92 ± 0.078; V -0.394 ± 0.059; W -0.08 ± 0.05; Y -0.474 ± 0.099
W48: L -0.398 ± 0.047; P -0.999 ± 0.13; N -1.46 ± 0.26; H -1.11 ± 0.16; F -0.311 ± 0.078; S -0.817 ± 0.073; E -0.774 ± 0.12; R -0.729 ± 0.059; Q -0.867 ± 0.14; M -0.65 ± 0.072; D -1.08 ± 0.2; T -1.1 ± 0.13; V -0.672 ± 0.066; I -1 ± 0.2; Y -0.78 ± 0.12; G -0.919 ± 0.084; A -0.904 ± 0.089
T52: H -0.394 ± 0.16; G -0.216 ± 0.056; N -0.009 ± 0.095; F -0.187 ± 0.12; E -0.343 ± 0.084; L -0.018 ± 0.053; C -0.111 ± 0.086; P -0.343 ± 0.079; Q -0.22 ± 0.078; S 0.085 ± 0.069; K -0.109 ± 0.1; I -0.009 ± 0.088; A -0.033 ± 0.065; M -0.157 ± 0.082; Y -0.143 ± 0.13
F59: E -0.431 ± 0.091; C -0.817 ± 0.23; Y -0.006 ± 0.092; W -0.128 ± 0.084; N -1.2 ± 0.24; A -0.813 ± 0.099; T -0.686 ± 0.12; H -1.18 ± 0.25; M -0.568 ± 0.071; V -0.761 ± 0.064; Q -1.13 ± 0.2; K -0.954 ± 0.11; I -0.525 ± 0.085; S -0.995 ± 0.1; P -0.833 ± 0.11; G -1.17 ± 0.13; R -0.7 ± 0.071
M62: D -0.86 ± 0.11; W -0.335 ± 0.075; T -0.274 ± 0.082; G -0.591 ± 0.066; A -0.141 ± 0.065; F 0 ± 0.086; S -0.619 ± 0.068; R -0.855 ± 0.077; K -0.793 ± 0.14; I -0.346 ± 0.12; L -0.227 ± 0.058; P -0.93 ± 0.11; C -0.226 ± 0.081; Y -0.959 ± 0.13; H -1.33 ± 0.4; N -1.08 ± 0.22; V -0.388 ± 0.06
E57: V -0.192 ± 0.073; D -0.162 ± 0.14; P -0.744 ± 0.083; S -0.192 ± 0.058; K -0.091 ± 0.078; A -0.046 ± 0.074; N -0.055 ± 0.11; L -0.194 ± 0.042; Q -0.147 ± 0.082; Y -0.453 ± 0.096; W -0.148 ± 0.081; T -0.15 ± 0.07; I -0.097 ± 0.099; F -0.294 ± 0.12; M -0.203 ± 0.071; H -0.213 ± 0.12; G -0.126 ± 0.087; R -0.223 ± 0.054
L64: A 0.087 ± 0.06
R44: Y -0.029 ± 0.099; V -0.175 ± 0.063; P -0.314 ± 0.072; N 0.054 ± 0.097; Q -0.241 ± 0.085
R56: Q -0.287 ± 0.084; F -0.659 ± 0.17; I -0.6 ± 0.091; H -0.676 ± 0.15; V -0.39 ± 0.062; M -0.238 ± 0.067; T -0.373 ± 0.082; Y -0.444 ± 0.11; P -1.06 ± 0.15; E -1.2 ± 0.17; D -1.13 ± 0.22; N -1.16 ± 0.23; L -0.418 ± 0.061; S -0.598 ± 0.076; K -0.045 ± 0.1; C -0.525 ± 0.11; W -0.456 ± 0.062; A -0.479 ± 0.086
